Results reported in patent publication US20230094463A1 (TRUEBINDING, published 2023).
Numbering of substitutions follows the chain as printed.

B1: 19B5.2E6 (antibody, V domains shown)
VH: QIQLVQSGPELKKPGETVKISCKASGYTFTTYAMSWVKQAPGKGLKWMGWINTYSGVPTYADDLKGRFAFSLETSASTAYLQINNLKNEDTATYFCARGPYAMDYWGQGTSVTVSS
VL: DIQMTQTTSSLSASLGDRVTISCSASQGINNYLNWYQQKPDGTVKLLIYYASSLHSGVPSRFSGSGSGTDYSLTISNLEPEDIATYYCQQYSQVPYTFGSGTKLEIK
B2: 23H9.2E4 (antibody, V domains shown)
VH: B1 VH
VL: B1 VL
B3: 20H5.A3 (antibody, V domains shown)
VH: B1 VH with T17S, T28A, A33G, K38Q, I51V, Y60C, L64F, K87R
VL: B1 VL with S22N, G28D, N30S, A51T, H55L, Y87F, Q93K, V94L, K103H
B4: 6H6.2D6 (antibody, V domains shown)
VH: B1 VH with A33G, G49A, L64F, K87T
VL: B1 VL with N30S, A51T, Q93E, V94L
B5: 20D11.2C6 (antibody, V domains shown)
VH: EVQLQQSGPELVKPGASVKISCKASGYTFTDFYINWVKQSHGKSLEWIGDINPKNGGINYNPKFKIKATLTVDKSSSTSYMDLRGLTSEDSAVYYCTSGYGFPYWGQGTLVTVSA
VL: DIQMNQSPSSLSASLGDTITITCRASQNIYIWLSWYQQKPGNIPKLLIYKASNLHTGVPSRFSGSGSGTDFTLTISTLQPEDIATYFCLQGQSYPLTFGAGTKLEMK
B6: 15G7.2A7 (antibody, V domains shown)
VH: B5 VH with F32Y, I34M, K54N, I58T, P62Q, I66G, S79A, D82E, G85S
VL: B5 VL with T20S, Y30N, K45Q, T77S, F87Y, E105V
B7: 13G4.2F8 (antibody, V domains shown)
VH: QVQLQQPGAELVKPGASVKLSCKASGYTFTSYWMHWVKQRPGQGLEWIGMIHPNSGSTDYNEKFKNKATLNVDKSSSTAYIQLSSLTSEDSAVYYCTRWGIYYYARDYWGQGTTLTVSS
VL: DIVMTQSQKFMSTSVGERVSITCKASQNVGTNVAWYQQKAGQSLELLIYGASNRHTGVPDRFTGSGSGTDFTLTITNVQSEDMTNYFCEQYSNFPLTFGAGTKLELK

Assays:
[1] = target: T1, Human GAL3 protein (TrueBinding, QCB200349 / QCB200352; R&D Systems, 8259-GA) (human, UniProt P17931 2-250); experiment: blocking ELISA (GAL3 coated; antibody + biotinylated ITGaV)
T1 construct: also called human galectin-3

[2] = target: T2, Human Galectin-3 protein (Acro Biosystems, GA3-H5129) (human, UniProt P17931 2-250); experiment: blocking ELISA (Gal3 coated; antibody 3 µg/mL + INSR)
T2 construct: Bought protein; also called Gal3-ECD-His; Gal3-His; not shown: linker-spaced 6-histidine tag

[3] = target: T2, Human Galectin-3 protein (Acro …); experiment: ELISA, blocking of INSR binding to coated Gal3
[4] = target: T3, Gal3 Peptide 7 (AYPGAPGAYPGAPAPGVYPG) (human); experiment: peptide ELISA (peptide coated; antibody hIgG4 [S228P], 5 µg/mL)
T3 peptide: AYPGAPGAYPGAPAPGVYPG

[5] = target: T4, Gal3 Peptide 1 (ADNFSLHDALSGSGNPNPQG) (human); experiment: as above
T4 peptide: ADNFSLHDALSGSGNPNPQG

[6] = target: T2, Human Galectin-3 protein (Acro …); experiment: SPR (Biacore T200), antibody captured, Galectin-3 as analyte
[7] = target: T1, Human GAL3 protein (TrueBinding, …); experiment: blocking ELISA (GAL3 coated; antibody + biotinylated ITGa3)
[8] = target: T1, Human GAL3 protein (TrueBinding, …); experiment: blocking ELISA (GAL3 coated; antibody + biotinylated ITGb3)
[9] = target: T3, Gal3 Peptide 7 (AYPGAPGAYPGAPAPGVYPG); experiment: peptide ELISA: Gal3 peptide coated on the plate, antibody (hIgG4 S228P) at 5 µg/mL, anti-human IgG-HRP, A450 (Example 18)
[10] = target: T5, Gal3 Peptide 6 (GAYPGQAPPGAYPGAPGAYP) (human); experiment: as above
T5 peptide: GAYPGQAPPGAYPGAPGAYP

[11] = target: T4, Gal3 Peptide 1 (ADNFSLHDALSGSGNPNPQG); experiment: as above
[12] = target: T2, Human Galectin-3 protein (Acro …); experiment: ELISA, blocking of INSR binding to coated Gal3; remark: listed apart in the source
[13] = target: T5, Gal3 Peptide 6 (GAYPGQAPPGAYPGAPGAYP); experiment: peptide ELISA (peptide coated; antibody hIgG4 [S228P], 5 µg/mL)
[14] = target: T3, Gal3 Peptide 7 (AYPGAPGAYPGAPAPGVYPG); experiment: peptide ELISA (peptide coated)
[15] = target: T4, Gal3 Peptide 1 (ADNFSLHDALSGSGNPNPQG); experiment: peptide ELISA (peptide coated)
[16] = target: T1, Human GAL3 protein (TrueBinding, …); experiment: cell-based or functional assay
[17] = target: T2, Human Galectin-3 protein (Acro …); experiment: SPR (Biacore T200; antibody captured via anti-Fc, Galectin-3 analyte, 1:1 fit)

| Binder | percent blockade of GAL3-ITGaV interaction [1] | Gal3-INSR binding remaining, % of unblocked sample [2] | Gal3-INSR Blocking @ 3 µg/mL [3] | binding result [4] | binding result [5] | Kd [6] | percent blockade of GAL3-ITGa3 interaction [7] | percent blockade of GAL3-ITGb3 interaction [8] | binding result [9] | binding result [10] | binding result [11] | IC50 (read off the curve) [12] | binding result [13] | binding result [14] | binding result [15] | inhibition of Jurkat T cell adhesion [16] | Kd [17] | reduction of Gal3-INSR binding (%) [2] |
| --- | --- | --- | --- | --- | --- | --- | --- | --- | --- | --- | --- | --- | --- | --- | --- | --- | --- | --- |
| B1 | > 90% | < 5% | 100% | binds | binds | < 1 nM | > 90% | > 90% |  |  |  |  |  |  |  |  |  |  |
| B2 | > 90% | < 5% | 100% |  |  | 4.26 nM | > 90% | > 90% | binds | binds | binds |  |  |  |  |  |  |  |
| B3 | > 90% | < 5% | 100% | binds | binds | 3.95 nM | > 90% | > 90% |  |  |  | ~0.5 µg/mL | binds |  |  |  |  |  |
| B4 |  | < 5% | 100% |  |  | 4.86 nM |  |  |  |  |  | ~0.5 µg/mL |  | binds | binds |  |  |  |
| B5 | > 90% | < 5% | 100% |  |  | 27.8 nM | > 90% | > 90% |  |  |  |  |  |  |  | > 90% |  |  |
| B6 |  |  | 100% |  |  | 11.3 nM |  |  |  |  |  |  |  |  |  |  | 27.8 nM |  |
| B7 | < 30% |  | 11% |  |  | 2.53 nM | < 35% | < 10% |  |  |  |  |  |  |  |  | 18.4 nM | ≤ 30% |
